Measurements taken from patent publication US20100056764A1 (Novo Nordisk, published 2010).

Columns and labels:
mouse NKG2D = biological target: T1, mouse NKG2D (mouse, UniProt O54709 1-232, limits assumed); test: not described
T1 construct: The assay format for the cross-reactivity test is not described
T1 sequence (looked up): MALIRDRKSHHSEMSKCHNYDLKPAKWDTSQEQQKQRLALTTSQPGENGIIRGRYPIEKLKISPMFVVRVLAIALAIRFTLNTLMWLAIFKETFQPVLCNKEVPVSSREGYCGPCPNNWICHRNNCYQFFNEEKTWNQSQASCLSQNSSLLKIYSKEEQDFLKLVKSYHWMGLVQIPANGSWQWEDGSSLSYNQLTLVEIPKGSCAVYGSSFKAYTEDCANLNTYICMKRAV

dog NKG2D = biological target: T2, dog NKG2D (dog, UniProt A0A8I3PNL2 1-217); test: not described
T2 construct: The assay format for the cross-reactivity test is not described
T2 sequence: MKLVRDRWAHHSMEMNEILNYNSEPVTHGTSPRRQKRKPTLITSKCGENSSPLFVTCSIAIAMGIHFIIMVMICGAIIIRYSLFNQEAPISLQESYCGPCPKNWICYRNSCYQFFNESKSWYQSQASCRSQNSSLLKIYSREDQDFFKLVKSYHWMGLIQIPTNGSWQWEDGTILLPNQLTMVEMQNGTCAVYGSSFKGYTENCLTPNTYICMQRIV

[1] = biological target: T3, cynomolgous monkey NKG2D on NK, CD8+ T and gamma-delta T cells (cynomolgous monkey (Macaca fascicularis), UniProt P61252 1-216); test: flow cytometry on cynomolgous PBMC, NK cells gated; the legend names 16F16 purified from the original hybridoma
T3 construct: whole, on cells; Target on cynomolgous PBMC and whole blood cells; also called cynomologous NKG2D; cyno NKG2D
T3 sequence (looked up): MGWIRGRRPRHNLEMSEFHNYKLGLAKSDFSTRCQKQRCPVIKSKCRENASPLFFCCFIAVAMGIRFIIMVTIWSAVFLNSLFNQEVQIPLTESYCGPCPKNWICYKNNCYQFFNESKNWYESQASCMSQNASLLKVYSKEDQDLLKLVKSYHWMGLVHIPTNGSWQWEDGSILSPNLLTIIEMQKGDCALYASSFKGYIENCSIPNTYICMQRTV
Procedure: (§1) Flow cytometry assay—man and monkey PBMC. Perifieral blood mononuclear cells (PMBCs) were isolated from humans, or from Cynomologous or Rhesus monkey. All animal work were performed according to Danish National Research Council guidelines.

[2] = biological target: T4, rhesus monkey NKG2D on NK and CD8+ T cells (rhesus monkey (Macaca mulatta), UniProt Q9MZJ7 1-216); test: flow cytometry on rhesus PBMC, NK cells gated; the legend names 16F16 purified from the original hybridoma
T4 construct: whole, on cells; Target on rhesus PBMC; also called rhesus NKG2D
T4 sequence (looked up): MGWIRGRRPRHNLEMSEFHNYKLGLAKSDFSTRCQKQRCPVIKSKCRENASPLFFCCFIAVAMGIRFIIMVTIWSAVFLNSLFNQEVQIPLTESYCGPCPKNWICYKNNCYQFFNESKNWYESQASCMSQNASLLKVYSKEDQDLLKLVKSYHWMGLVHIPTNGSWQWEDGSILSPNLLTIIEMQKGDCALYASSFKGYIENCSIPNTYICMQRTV
Procedure: as §1

[3] = biological target: T5, human NKG2D (hNKG2D) on the cell surface (human, UniProt P26718 1-216); test: flow cytometry, NKG2D/DAP10 BaF/3 cells pre-incubated with antibody, then 1 µg MICA-mFc (competitor)
T5 construct: Carried by BaF/3 cells co-transfected with full-length NKG2D and DAP10, or naturally by human NK, CD8+ T and gamma-delta T cells (PBMC, whole blood); also called cell-surface NKG2D; NKG2D- and DAP10-expressing BaF/3 cells
T5 chain: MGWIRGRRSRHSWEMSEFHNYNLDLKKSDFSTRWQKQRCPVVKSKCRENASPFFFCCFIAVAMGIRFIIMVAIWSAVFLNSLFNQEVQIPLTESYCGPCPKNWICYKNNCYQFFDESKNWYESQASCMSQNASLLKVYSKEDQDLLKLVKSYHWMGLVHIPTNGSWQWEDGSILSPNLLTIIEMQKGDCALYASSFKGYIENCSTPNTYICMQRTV
Procedure: Flow cytometry assays—MICA blockade. […] The cells were then analysed on a B&D FACSArray flow cytometer. The degree of reduction of MICA binding by preincubation was analysed as MFI (mean fluorescence intensity) of binding with pre-incubation in % of binding of MICA without preincubation.

[4] = biological target: T6, recombinant NKG2D-Fc protein (R&D Systems), immobilized on a Biacore CM5 chip (human, UniProt P26718 78-216); test: SPR (Biacore), NKG2D-Fc immobilized on CM5 chip at 1200 RU, antibody in solution, Langmuir fit
T6 construct: also called NKG2D-hFc; hFc-NKG2D; not shown: Fc portion of the purchased fusion protein
T6 sequence: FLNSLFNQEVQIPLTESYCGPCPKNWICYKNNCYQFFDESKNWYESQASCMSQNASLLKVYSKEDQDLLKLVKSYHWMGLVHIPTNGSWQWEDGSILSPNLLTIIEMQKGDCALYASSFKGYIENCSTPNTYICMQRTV
Procedure: Protein immobilisation. […] Recombinant NKG2D-Fc proteins were immobilized covalently to carboxyl groups in the dextran layer on a Sensor Chip CM5 (Biacore GE Healthcare; BR-1000-14). The sensor chip surface was activated with EDC/NHS (N-ethyl-N′-(3-dimethylaminopropyl)carbodiimidehydrochloride and N-hydroxysuccinimide (Biacore GE Healthcare; BR-1000-50)). […] Deactivation of the remaining activated groups was performed using 100 mM ethanolamine pH 8 (Biacore GE Healthcare; BR-1000-50).
[…] The resulting sensorgrams were analysed by global fitting using the Langmuir model. The dissociation constant (KD) was calculated as KD=kd/ka.

[5] = biological target: T5, human NKG2D (hNKG2D) on the cell surface; test: flow cytometry, dose-response on NKG2D- and DAP10-expressing BaF/3 cells, y axis % of max binding
[6] = biological target: T6, recombinant NKG2D-Fc protein (R&D …); test: SPR (Biacore), NKG2D-Fc immobilized on CM5 chip at 600 RU, antibody in solution, Langmuir fit
Procedure: Protein immobilisation. […] Recombinant NKG2D-Fc proteins were immobilized covalently to carboxyl groups in the dextran layer on a Sensor Chip CM5 (Biacore GE Healthcare; BR-1000-14). The sensor chip surface was activated with EDC/NHS (N-ethyl-N′-(3-dimethylaminopropyl)carbodiimidehydrochloride and N-hydroxysuccinimide (Biacore GE Healthcare; BR-1000-50)). Proteins were diluted to 10 μg/ml in coupling buffer (10 mM acetate, pH 5.2) and injected until the appropriate immobilization level was reached (i.e. 500 to 1000 RU). Deactivation of the remaining activated groups was performed using 100 mM ethanolamine pH 8 (Biacore GE Healthcare; BR-1000-50).
Affinity measurement. […] For kinetic experiments, serial dilutions of soluble antibodies (from 0.3 to 30 nanoM) were injected for 2 min at a constant flow rate of 40 μl/min on dextran layers containing immobilized NKG2D-Fc proteins (500 to 1000 RU), and allowed to dissociate for 3 min before regeneration by a eight second injection of 500 mM NaCl and 10 mM NaOH buffer. The resulting sensorgrams were analysed by global fitting using the Langmuir model. The dissociation constant (KD) was calculated as KD=kd/ka.

- binding result (mouse NKG2D): no binding
- binding result (dog NKG2D): no binding
- binding result [1]: binds
- binding result [2]: binds
- Full blockade of 1 µg MICA-Fc (antibody concentration) [3]: 0.59 µg/mL
- IC50 [3]: 0.019 µg/mL
- Kd [4]: 0.178 nM
- EC50 (read off the curve) [5]: ~0.03 nM
- Kd [6]: 0.165 nM
B1: 16F16, fully human anti-hNKG2D monoclonal antibody, recombinantly expressed as IgG4 isotype (antibody, V domains shown)
VH: EVQLVESGGGLVKPGGSLRLSCAASGFTFSSYSMNWVRQAPGKGLEWVSSITSSSSYIYYADSVKGRFTISRDNAKNSLYLQMNSLRAEDTAVYYCARDRRYFDWFPLDYRGQGTLVTVSS
VL: DIQMTQSPSSLSASVGDRVTITCRASQGISSWLAWYQQKPEKAPKSLIYAASSLQSGVPSRFSGSGSGTDFTLTISSLQPEDFATYYCQQYNGYPYTFGQGTKLEIKR
notes: also called 16F16 IgG4; 16F16 (IgG4)
